Measured values published in patent publication US20030059769, “High affinity nucleic acid ligands to lectins” (published 2003).

B1: PF422s1 (ssRNA)
RNA: GAAUCCGGAACACGCGAGAAAACAAAUCAACGACCAAUCGAUUCG
modifications: 2'-F on all C and U
B2: PF373s1 (ssRNA)
RNA: CUCAACGAAUCAGUAAACAUAACACCAUGAAACAUAAAUAGCACGCGAG
modifications: 2'-F on all C and U
B3: PF377L1 (ssRNA)
RNA: CUCAACGAGCCAGGACUACGAUCAGCAAACGCGAG
modifications: 2'-F on all C and U
B4: PA330 (ssRNA)
RNA: GGGAGACAAGAAUAAACGCUCAAAACGCACAAAGUAAGGGACGGGAUGGAUCGCCCUAGGCUGGAAGGGAACUUCGACAGGAGGCUCACAACAGGC
modifications: 2'-NH2 on all C and U
B5: PA341 (ssRNA)
RNA: GGGAGACAAGAAUAAACGCUCAAGCCCCAAACGCAAGCGAGCAUCCGCAACAGGGAAGAAGACAGACGAAUGAUUCGACAGGAGGCUCACAACAGGC
modifications: 2'-NH2 on all C and U
B6: PA477 (ssRNA)
RNA: GGGAGACAAGAAUAAACGCUCAAGCCCCAAACGCAAGUGAGCAUCCGCAACAGGGAAGAAGACAGACGAAUGAUUCGACAGGAGGCUCACAACAGGC
modifications: 2'-NH2 on all C and U [2'-NH2 on all C and U; n18 in fixed region = G]
B7: PA328 (ssRNA)
RNA: GGGAGACAAGAAUAAACGCUCAAGCAAAAGGCGUAAAUACACCUCCGCAACUGGGAAGAAGACGCAGGGACGGUUCGACAGGAGGCUCACAACAGGC
modifications: 2'-NH2 on all C and U [2'-NH2 on all C and U; N83 in fixed region = A]
B8: PA337 (ssRNA)
RNA: GGGAGACAAGAAUAAACGCUCAAACAGCUACAAGUGGGACAACAGGGUACAGCGGAGAGAAACAUCCAAACAAGUUCGACAGGAGGCUCACAACAGGC
modifications: 2'-NH2 on all C and U
B9: PA338 (ssRNA)
RNA: GGGAGACAAGAAUAAACGCUCAAUCAAGUAAGGAGGAAGGGUCGUGACAGAAAAACGAGCAAAAAACGCGAGUUCGACAGGAGGCUCACAACAGGC
modifications: 2'-NH2 on all C and U
B10: PA318 (ssRNA)
RNA: GGGAGACAGAAUAAACGCUCAAAGACCAAGGGACAGCAGCGGGGAAAAACAGAUCACAGCUGUAAGAGGGCUUCGACAGGAGGCUCACAACAGGC
modifications: 2'-NH2 C and U
B11: PA351 (ssRNA)
RNA: GGGAGACAAGAAUAAACGCUCAAUGAUAGCACAGUGUAUAAGAAAACGCAACACCGCGCGCGGAAAGAGUUCGACAGGAGGCUCACAACAGGC
modifications: 2'-NH2 C and U
B12: PA301 (ssRNA)
RNA: GGGAGACAAGAAUAAACGCUCAAACACAAAUCGGGCAGGGACUGGGUUGGGCACGGCAGGGCGCCUUCGACAGGAGGCUCACAACAGGC
modifications: 2'-NH2 C and U
B13: PA329 (ssRNA)
RNA: GGGAGACAAGAAUAAACGCUCAAGAAGGAUACUUAGGACUACGUGGGAUGGGAUGAAAUGGGAGAACGGGAGUUCGACAGGAGGCUCACAACAGGC
modifications: 2'-NH2 C and U
B14: PA342 (ssRNA)
RNA: GGGAGACAAGAAUAAACGCUCAACCAACGCGCACCCCGCAGCAAACGAAAUUGGGGAGACAGGUGCAAGACAGUUCGACAGGAGGCUCACAACAGGC
modifications: 2'-NH2 C and U
B15: PA320 (ssRNA)
RNA: GGGAGACAAGAAUAAACGCUCAAGAGUAUCACACAAACCGGCACGGACUAAGCAGAAGGAGGUACGGAAGAUUCGACAGGAGGCUCACAACAGGC
modifications: 2'-NH2 C and U
B16: PA315 (ssRNA)
RNA: GGGAGACAAGAAUAAACGCUCAAUAACAAAGCAGCAAAGUACCAGAGGAGAGUUGGCAGGGUUUAGGCAGCUUCGACAGGAGGCUCACAACAGGC
modifications: 2'-NH2 C and U
B17: PA354 (ssRNA)
RNA: GGGAGACAAGAAUAAACGCUCAAGCAAUGGAACGCUAGGAGGGAACAUAAGCAGGGCGAGCGGAGUCGAUAGCUUCGACAGGAGGCUCACAACAGGC
modifications: 2'-NH2 C and U
B18: PA352 (ssRNA)
RNA: GGGAGACAAGAAUAAACGCUCAAGAUCAUCGCAGUAUCGGAAUCGACCCUCAGUGGGUGACAUGCGGACAAGUUCGACAGGAGGCUCACAACAGGC
modifications: 2'-NH2 C and U
B19: PA463 (ssRNA)
RNA: GGGAGACAAGAAUAAACGCUCAAGGGAAACGGAAAGGGACAAGGCGAACAGACGAGAAGUAGACGGAGUAGGAUUCGACAGGAGGCUCACAACAGGC
modifications: 2'-NH2 C and U
B20: PA353 (ssRNA)
RNA: GGGAGACAAGAAUAAACGCUCAAGUACCGGGAAGGGAUGAACUGGGAUAUGGGAACGGAGGUCAGAGGCACGAUUCGACAGGAGGCUCACAACAGGC
modifications: 2'-NH2 C and U
B21: PA325 (ssRNA)
RNA: GGGAGACAAGAAUAAACGCUCAAACGAGAGCACCAAGGCAACAGAUGCAGAAGAAGUGUGCGCGCGCGAAAUUCGACAGGAGGCUCACAACAGGC
modifications: 2'-NH2 C and U
B22: PA335 (ssRNA)
RNA: GGGAGACAAGAAUAAACGCUCAAUGAUAUACACGUAAGCACUGAACCAGGCUGAGAUCCAUCAGUGCCCAGGUUCGACAGGAGGCUCACAACAGGC
modifications: 2'-NH2 C and U
B23: PA319 (ssRNA)
RNA: GGGAGACAAGAAUAAACGCUCAAAGUCGGGGAUAGAAACACACUAAGAAGUGCAUCAGGUAGGAGAUAAUUCGACAGGAGGCUCACAACAGGC
modifications: 2'-NH2 C and U [all C and U 2'-NH2]
B24: PA327 (ssRNA)
RNA: GGGAGACAAGAAUAAACGCUCAAUAAGACAACGAACAGACAGAAGCGAAAAAGGGGCGCCGCAGCAACAACAAAUUCGACAGGAGGCUCACAACAGGC
modifications: 2'-NH2 C and U
B25: PA336 (ssRNA)
RNA: GGGAGACAAGAAUAAACGCUCAAGAUCAUAACGAGAGGAGAGGGAGAACUACACGCGCGCGAGGAAAGAGUUCGACAGGAGGCUCACAACAGGC
modifications: 2'-NH2 C and U
B26: PA447 (ssRNA)
RNA: GGGAGACAAGAAUAAACGCUCAAAACAGAACUGAUCGGCGCAGGUUGAUAAAGGGGCAGCGCGAAGAUCACAAUUCGACAGGAGGCUCACAACAGGC
modifications: 2'-NH2 C and U
B27: PF381 (ssRNA)
RNA: GGGAGACAAGAAUAAACGCUCAAAGGAUCACACAAACAUCGGUCAAUAAAUAAGUAUUGAUAGCGGGGAUAUUCGACAGGAGGCUCACAACAGGC
modifications: 2'-F C and U
B28: PF411 (ssRNA)
RNA: GGGAGACAAGAAUAAACGCUCAACAACCCAACCAUCUAGAGCUUCGAACCAUGGUAUACAAGGGAACACAAAAUUCGCGGAGGCUCCAACAGGCGGC
modifications: 2'-F C and U
B29: PF422 (ssRNA)
RNA: GGGAGACAAGAAUAAACGCUCAACGUCAAGCCAGAAUCCGGAACACGCGAGAAAACAAAUCAACGACCAAUCGAUUCGACAGGAGGCUCACAAAGGC
modifications: 2'-F C and U
B30: PF380 (ssRNA)
RNA: GGGAGACAAGAAUAAACGCUCAACGAGCAAAAGUACUCACGGGACCAGGAGAUCAGCAACACGCGAGACGAAAUUCGACAGGAGGCUCACAACAGGC
modifications: 2'-F C and U
B31: PF377s1 (ssRNA)
RNA: CUCAACGAGCCAGGAACAUCGACGUCAGCAAACGCGAG
modifications: 2'-F C and U
B32: PF387s1 (ssRNA)
RNA: CUCAACGCACCAGGAACAACGAGAACCAUCAGUAAACGCGAG
modifications: 2'-F C and U
B33: PF377M5 (ssRNA)
RNA: CUCAACGAGCCAGGAACAUCGACGUCAGCAAACGCGAG
modifications: 2'-F C and U; 2'-OMe G 7,9,14 and A 8,15,18,27,31
B34: PF377s1-5'NH2 (ssRNA)
RNA: CUCAACGAGCCAGGAACAUCGACGUCAGCAAACGCGAG
modifications: 2'-F C and U, 5' NH2
B35: PF373s1 (ssRNA)
RNA: CUCAACGAAUCAGUAAACAUAACACCAUGAAACAUAAAUAGCACGCGAG
modifications: 2'-F C and U
B36: PF377L1 (ssRNA)
RNA: CUCAACGAGCCAGGACUACGAUCAGCAAACGCGAG
modifications: 2'-F C and U
B37: PF422s1 (ssRNA)
RNA: GAAUCCGGAACACGCGAGAAAACAAAUCAACGACCAAUCGAUUCG
modifications: 2'-F C and U
B38: PF383s1 (ssRNA)
RNA: CUCAACGCACCAGGAACAACAAGAACCAUCAGUAAGCGCGAG
modifications: 2'-F C and U
B39: PA341 (ssRNA)
RNA: GGGAGACAAGAAUAAACGCUCAAGCCCCAAACGCAAGCGAGCAUCCGCAACAGGGAAGAAGACAGACGAAUGAUUCGACAGGAGGCUCACAACAGGC
modifications: 2'-NH2 C and U

Each binder was assayed against T1, P-selectin (PS-Rg) (Homo sapiens, UniProt P16109 P16109:42-321) (assay: filter; HSMC). Conditions: tags: human IgG1 Fc fusion; chain copies: dimer.
T1 sequence (P16109 42-321, one chain of several): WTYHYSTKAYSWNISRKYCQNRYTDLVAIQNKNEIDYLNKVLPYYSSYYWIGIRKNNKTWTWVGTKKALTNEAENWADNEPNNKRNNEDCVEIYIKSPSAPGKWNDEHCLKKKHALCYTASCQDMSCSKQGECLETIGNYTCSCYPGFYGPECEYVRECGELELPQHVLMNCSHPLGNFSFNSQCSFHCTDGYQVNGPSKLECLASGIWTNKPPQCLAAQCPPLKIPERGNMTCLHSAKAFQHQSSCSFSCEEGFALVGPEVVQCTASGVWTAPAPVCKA
B1 showed a Kd of 1 nM. For B2, the Kd was 0.056 nM. For B3, the Kd was 0.22 nM.

What follows are binders tested against T1, P-selectin (PS-Rg) (assay: filter; 37 C). Conditions: tags: human IgG1 Fc fusion; chain copies: dimer; label: 32P.
B4 was tested, and the Kd was 0.237 nM. Work on B5 yielded a Kd of 0.44 nM. B6 gave a Kd of 0.57 nM. B7 showed a Kd of 3 nM. With B8 the Kd was 4.5 nM. B9 showed a Kd of 57 nM.

Same assay, conditions: tags: human IgG Fc fusion; chain copies: 2 (stated dimer)
B10 was tested, and the Kd was 2 nM. In the case of B11, the Kd is reported as 2 nM. Work on B12 yielded a Kd of 2.5 nM. B13 was tested, and the Kd was 4 nM. B14 gave a Kd of 4 nM. B15 gave a Kd of 4.5 nM. With B16 the Kd was 5 nM. With B17 the Kd was 5 nM. Work on B18 yielded a Kd of 6 nM. B19 gave a Kd of 8 nM. B20 was tested, and the Kd was 9 nM. B21 showed a Kd greater than 10 nM. Binder B22 has a Kd of 10.5 nM. With B23 the Kd was 11 nM. B24 gave a Kd of 13.5 nM. B25 was tested, and the Kd was 15 nM. For B26, the Kd was 50 nM.

What follows are binders tested against T1, P-selectin (PS-Rg) (assay: inhibition; sialyl-LewisX). Conditions: tags: human IgG Fc fusion; chain copies: 2 (stated dimer).
Description: The ability of evolved RNA pools or cloned ligands to inhibit the binding of PS-Rg to sialyl-Lewis^x was tested in competitive ELISA assays (C. Foxall et al., 1992, supra). For these assays, the wells of Corning (25801) 96 well microtiter plates were coated with 100 ng of a sialyl-Lewis^x/BSA conjugate, air dried overnight, washed with 300 μl of PBS(−) and then blocked with 1% BSA in HSMC for 60 min at room temperature. RNA ligands were incubated with PS-Rg in HSMC/1% BSA at room temperature for 15 min. After removal of the blocking solution, 50 μl of PS-Rg (10 nM) or a PS-Rg (10 nM)/RNA ligand mix was added to the coated, blocked wells and incubated at room temperature for 60 minutes. The binding solution was removed, wells were washed with 300 μl of PBS(−) and then probed with HRP conjugated anti-human IgG, at room temperature to quantitate PS-Rg binding. After a 30 minute incubation at room temperature in the dark with OPD peroxidase substrate (Sigma P9187), the extent of PS-Rg binding and percent inhibition was determined from the OD₄₅₀.
Work on B27 yielded an IC50 of 1 nM. Work on B28 yielded an IC50 of 2 nM. B29 showed an IC50 of 3 nM. B30 was tested, and the IC50 was 4 nM. Work on B31 yielded an IC50 of 2 nM. With B32 the IC50 was 2 nM. With B33 the IC50 was 2 nM. B34 gave an IC50 of 2 nM. With B35 the IC50 was 3 nM. In the case of B36, the IC50 is reported as 4 nM. For B37, the IC50 was 8 nM. Work on B38 yielded an IC50 of 25 nM. B39 gave an IC50 of 3 nM.
